This assay concerns the target mitochondrial ribosome (S. cerevisiae (endogenous in W303)). Briefly: co-sedimentation.

B1: Cbp6 (natural protein)
chain: MSSSQVVRDSAKKLVNLLEKYPKDRIHHLVSFRDVQIARFRRVAGLPNVDDKGKSIKEKKPSLDEIKSIINRTSGPLGLNKEMLTKIQNKMVDEKFTEESINEQIRALSTIMNNKFRNYYDIGDKLYKPAGNPQYYQRLINAVDGKKKESLFTAMRTVLFGK
Turning to B1, the percent bound to the ribosome is 20%.

B2: Cbp3 (natural protein)
chain: ETAQDSPELLAKSSHLNSKPLDVSNKAPVKTAQNKIPLAHSKYESSKYELPKWKEALGELVIRAFHLDMDRVRAGPVAGSYYYKICKEQGLQYEDEPLSETAKYFYEDLKLPRTFSQWFQITVLHEWILFVRMRAMPFKYGRNYQQKLVDRTFSDIELRLFEEMKVNSGRIADQYLKDFNTQLRGAIFAYDEGFATDDGTLATAVWRNLFGGRKNIDMVHLESVVRYIYSQLYVLSRLSDREFATGKFKFVPPGVKVEKLTPKQEEELKAKTIAKYEALDKDPKTLPSERSRLSYTN
Turning to B2, the percent bound to the ribosome came to 20%.

Source of the values: paper PMC3461508.
